Data taken from patent publication US20210388087A1 (Chugai, published 2021).
Changes are numbered by the printed parent chain. Names may count otherwise. Blank lines part the entries; values can stand above or below the binder they belong to.

Columns and labels:
Human CD137 ECD = biological target: T1, Human CD137 ECD (human); test: single mutant vs template dBBDu183H
T1 construct: also called 4-1BB

Human CD3eg linker = biological target: T2, Human CD3eg linker (human); test: SPR; fold vs parent H183/L072
T2 construct: Single-chain construct; also called recombinant human CD3
T2 chain: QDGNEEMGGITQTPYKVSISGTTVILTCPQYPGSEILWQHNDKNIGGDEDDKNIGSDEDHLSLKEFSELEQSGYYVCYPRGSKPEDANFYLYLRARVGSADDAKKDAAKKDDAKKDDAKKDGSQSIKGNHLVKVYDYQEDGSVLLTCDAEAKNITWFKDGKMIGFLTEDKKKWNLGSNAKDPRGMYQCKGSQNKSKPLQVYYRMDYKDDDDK

T1 sequence (chain, as listed by the source limits assumed): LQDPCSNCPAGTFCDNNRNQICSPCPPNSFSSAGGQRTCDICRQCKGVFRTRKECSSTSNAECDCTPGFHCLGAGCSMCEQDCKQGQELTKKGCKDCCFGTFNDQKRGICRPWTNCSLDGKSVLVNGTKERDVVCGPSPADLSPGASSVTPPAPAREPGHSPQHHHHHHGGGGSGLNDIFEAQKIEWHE

- fold change of affinity (Human CD137 ECD): 0.3 fold
B1: H183/L072 VH F27A (antibody, name in Kabat numbering, V domains shown)
VH: QVQLVESGGGLVQPGRSLRLSCAASGATFSNAWMHWVRQAPGKGLEWVAQIKDKGNAYAAYYAPSVKGRFTISRDDSKNSIYLQMNSLKTEDTAVYYCHYVHYASASTVLPAFGVDAWGQGTTVTVSS
VL: DIVMTQSPLSLPVTPGEPASISCQASQELVHMNRNTYLHWYQQKPGQAPRLLIYKVSNRFPGVPDRFSGSGSGTDFTLKISRVEAEDVGVYYCAQGTSVPFTFGQGTKLEIK

- fold change of affinity (Human CD137 ECD): 0.1 fold
B2: H183/L072 VH A32G (antibody, name in Kabat numbering, V domains shown)
VH: B1 VH with A27F, A32G
VL: B1 VL

- fold change of affinity (Human CD3eg linker): 0.9 fold
B3: H183/L072 VL V51R (antibody, name in Kabat numbering, V domains shown)
VH: B1 VH with A27F
VL: B1 VL with V56R

- fold change of affinity (Human CD3eg linker): 0.2 fold
B4: H183/L072 VL V51T (antibody, name in Kabat numbering, V domains shown)
VH: B1 VH with A27F
VL: B1 VL with V56T

- fold change of affinity (Human CD3eg linker): 0 fold
B5: H183/L072 VL Y32L (antibody, name in Kabat numbering, V domains shown)
VH: B1 VH with A27F
VL: B1 VL with Y37L

- fold change of affinity (Human CD137 ECD): 0.1 fold
B6: H183/L072 VH A32F (antibody, name in Kabat numbering, V domains shown)
VH: B1 VH with A27F, A32F
VL: B1 VL

- fold change of affinity (Human CD3eg linker): 1 fold
B7: H183/L072 VL V94A (antibody, name in Kabat numbering, V domains shown)
VH: B1 VH with A27F
VL: B1 VL with V99A

- fold change of affinity (Human CD3eg linker): 0.5 fold
B8: H183/L072 VL V94R (antibody, name in Kabat numbering, V domains shown)
VH: B1 VH with A27F
VL: B1 VL with V99R

- fold change of affinity (Human CD3eg linker): 1 fold
B9: H183/L072 VL V94Q (antibody, name in Kabat numbering, V domains shown)
VH: B1 VH with A27F
VL: B1 VL with V99Q

- fold change of affinity (Human CD3eg linker): 1.5 fold
B10: H183/L072 VL V94P (antibody, name in Kabat numbering, V domains shown)
VH: B1 VH with A27F
VL: B1 VL with V99P

- fold change of affinity (Human CD3eg linker): 0 fold
B11: H183/L072 VL Y32T (antibody, name in Kabat numbering, V domains shown)
VH: B1 VH with A27F
VL: B1 VL with Y37T

- fold change of affinity (Human CD3eg linker): 0.5 fold
B12: H183/L072 VL V94D (antibody, name in Kabat numbering, V domains shown)
VH: B1 VH with A27F
VL: B1 VL with V99D

- fold change of affinity (Human CD3eg linker): 0.8 fold
B13: H183/L072 VL V94M (antibody, name in Kabat numbering, V domains shown)
VH: B1 VH with A27F
VL: B1 VL with V99M

- fold change of affinity (Human CD3eg linker): 0.3 fold
B14: H183/L072 VL V51S (antibody, name in Kabat numbering, V domains shown)
VH: B1 VH with A27F
VL: B1 VL with V56S

- fold change of affinity (Human CD3eg linker): 0.7 fold
B15: H183/L072 VL V94S (antibody, name in Kabat numbering, V domains shown)
VH: B1 VH with A27F
VL: B1 VL with V99S

- fold change of affinity (Human CD3eg linker): 0.8 fold
B16: H183/L072 VL V94I (antibody, name in Kabat numbering, V domains shown)
VH: B1 VH with A27F
VL: B1 VL with V99I

- fold change of affinity (Human CD137 ECD): 0.4 fold
B17: H183/L072 VH A32E (antibody, name in Kabat numbering, V domains shown)
VH: B1 VH with A27F, A32E
VL: B1 VL

- fold change of affinity (Human CD3eg linker): 1.3 fold
B18: H183/L072 VL V94T (antibody, name in Kabat numbering, V domains shown)
VH: B1 VH with A27F
VL: B1 VL with V99T

- fold change of affinity (Human CD3eg linker): 0.6 fold
B19: H183/L072 VL V51L (antibody, name in Kabat numbering, V domains shown)
VH: B1 VH with A27F
VL: B1 VL with V56L

- fold change of affinity (Human CD3eg linker): 0 fold
B20: H183/L072 VL Y32Q (antibody, name in Kabat numbering, V domains shown)
VH: B1 VH with A27F
VL: B1 VL with Y37Q

- fold change of affinity (Human CD3eg linker): 0.3 fold
B21: H183/L072 VL V94L (antibody, name in Kabat numbering, V domains shown)
VH: B1 VH with A27F
VL: B1 VL with V99L

- fold change of affinity (Human CD137 ECD): 1.2 fold
B22: H183/L072 VH A32L (antibody, name in Kabat numbering, V domains shown)
VH: B1 VH with A27F, A32L
VL: B1 VL

- fold change of affinity (Human CD137 ECD): 0.3 fold
B23: H183/L072 VH A32N (antibody, name in Kabat numbering, V domains shown)
VH: B1 VH with A27F, A32N
VL: B1 VL

- fold change of affinity (Human CD3eg linker): 0 fold
B24: H183/L072 VL Y32S (antibody, name in Kabat numbering, V domains shown)
VH: B1 VH with A27F
VL: B1 VL with Y37S

- fold change of affinity (Human CD137 ECD): 1 fold
B25: H183/L072 VH A32K (antibody, name in Kabat numbering, V domains shown)
VH: B1 VH with A27F, A32K
VL: B1 VL

- fold change of affinity (Human CD3eg linker): 0 fold
B26: H183/L072 VL Y32E (antibody, name in Kabat numbering, V domains shown)
VH: B1 VH with A27F
VL: B1 VL with Y37E

- fold change of affinity (Human CD3eg linker): 0 fold
B27: H183/L072 VL Y32G (antibody, name in Kabat numbering, V domains shown)
VH: B1 VH with A27F
VL: B1 VL with Y37G

- fold change of affinity (Human CD3eg linker): 0.9 fold
B28: H183/L072 VL V94N (antibody, name in Kabat numbering, V domains shown)
VH: B1 VH with A27F
VL: B1 VL with V99N

- fold change of affinity (Human CD3eg linker): 0.8 fold
B29: H183/L072 VL V51K (antibody, name in Kabat numbering, V domains shown)
VH: B1 VH with A27F
VL: B1 VL with V56K

- fold change of affinity (Human CD3eg linker): 0.8 fold
B30: H183/L072 VL V94H (antibody, name in Kabat numbering, V domains shown)
VH: B1 VH with A27F
VL: B1 VL with V99H

- fold change of affinity (Human CD3eg linker): 1.4 fold
B31: H183/L072 VL V51I (antibody, name in Kabat numbering, V domains shown)
VH: B1 VH with A27F
VL: B1 VL with V56I

- fold change of affinity (Human CD3eg linker): 0.5 fold
B32: H183/L072 VL V51Q (antibody, name in Kabat numbering, V domains shown)
VH: B1 VH with A27F
VL: B1 VL with V56Q

- fold change of affinity (Human CD3eg linker): 0 fold
B33: H183/L072 VL Y32N (antibody, name in Kabat numbering, V domains shown)
VH: B1 VH with A27F
VL: B1 VL with Y37N

- fold change of affinity (Human CD3eg linker): 0 fold
B34: H183/L072 VL Y32H (antibody, name in Kabat numbering, V domains shown)
VH: B1 VH with A27F
VL: B1 VL with Y37H

- fold change of affinity (Human CD3eg linker): 0.4 fold
B35: H183/L072 VL V94K (antibody, name in Kabat numbering, V domains shown)
VH: B1 VH with A27F
VL: B1 VL with V99K

- fold change of affinity (Human CD3eg linker): 0.2 fold
B36: H183/L072 VL V51H (antibody, name in Kabat numbering, V domains shown)
VH: B1 VH with A27F
VL: B1 VL with V56H

- fold change of affinity (Human CD3eg linker): 0.2 fold
B37: H183/L072 VL V94F (antibody, name in Kabat numbering, V domains shown)
VH: B1 VH with A27F
VL: B1 VL with V99F

- fold change of affinity (Human CD137 ECD): 1.6 fold
B38: H183/L072 VH A32M (antibody, name in Kabat numbering, V domains shown)
VH: B1 VH with A27F, A32M
VL: B1 VL

- fold change of affinity (Human CD3eg linker): 0.5 fold
B39: H183/L072 VL V51M (antibody, name in Kabat numbering, V domains shown)
VH: B1 VH with A27F
VL: B1 VL with V56M

- fold change of affinity (Human CD3eg linker): 0.4 fold
B40: H183/L072 VL V94E (antibody, name in Kabat numbering, V domains shown)
VH: B1 VH with A27F
VL: B1 VL with V99E

- fold change of affinity (Human CD3eg linker): 0 fold
B41: H183/L072 VL Y32K (antibody, name in Kabat numbering, V domains shown)
VH: B1 VH with A27F
VL: B1 VL with Y37K

- fold change of affinity (Human CD137 ECD): 0.2 fold
B42: H183/L072 VH A32H (antibody, name in Kabat numbering, V domains shown)
VH: B1 VH with A27F, A32H
VL: B1 VL

- fold change of affinity (Human CD3eg linker): 0 fold
B43: H183/L072 VL Y32A (antibody, name in Kabat numbering, V domains shown)
VH: B1 VH with A27F
VL: B1 VL with Y37A

- fold change of affinity (Human CD137 ECD): 2.2 fold
B44: H183/L072 VH A32I (antibody, name in Kabat numbering, V domains shown)
VH: B1 VH with A27F, A32I
VL: B1 VL

- fold change of affinity (Human CD3eg linker): 0 fold
B45: H183/L072 VL Y32D (antibody, name in Kabat numbering, V domains shown)
VH: B1 VH with A27F
VL: B1 VL with Y37D
